According to patent US20250090677A1 (MULTITUDE THERAPEUTICS, published 2025):

How the values were obtained:
[1] = molecular target: T1, CDH6 on the cell surface of OVCAR-3 cells (human ovarian cancer cells) (human, UniProt P55285 54-790); experiment: flow cytometry (FACS) on OVCAR-3 cells, antibody titration, labelled secondary antibody, MFI
T1 construct: whole, on cells; also called CDH6-positive human ovarian cancer cell line OVCAR-3
T1 sequence (looked up): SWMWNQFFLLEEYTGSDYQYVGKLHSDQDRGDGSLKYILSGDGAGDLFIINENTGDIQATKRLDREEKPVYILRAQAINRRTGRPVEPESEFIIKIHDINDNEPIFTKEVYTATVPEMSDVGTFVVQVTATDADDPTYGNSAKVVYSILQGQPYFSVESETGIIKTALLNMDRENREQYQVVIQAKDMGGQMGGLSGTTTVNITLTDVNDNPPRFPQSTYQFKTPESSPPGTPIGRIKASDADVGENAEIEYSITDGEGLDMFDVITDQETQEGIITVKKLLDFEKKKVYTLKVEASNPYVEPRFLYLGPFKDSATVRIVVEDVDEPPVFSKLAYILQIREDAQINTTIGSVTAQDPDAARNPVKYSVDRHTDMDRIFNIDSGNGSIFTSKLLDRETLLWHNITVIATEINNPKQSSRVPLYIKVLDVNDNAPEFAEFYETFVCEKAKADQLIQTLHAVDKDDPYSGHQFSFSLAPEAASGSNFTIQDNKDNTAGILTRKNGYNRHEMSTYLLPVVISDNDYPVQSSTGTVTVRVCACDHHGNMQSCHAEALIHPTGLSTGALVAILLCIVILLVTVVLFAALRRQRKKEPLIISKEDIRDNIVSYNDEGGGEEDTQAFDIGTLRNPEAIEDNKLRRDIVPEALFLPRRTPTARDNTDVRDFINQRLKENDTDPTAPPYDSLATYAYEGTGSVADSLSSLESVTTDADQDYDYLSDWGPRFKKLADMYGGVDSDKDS
Protocol: The binding EC50 of the humanized antibodies on tumor cell were tested as follow. Human ovarian cancer cell line OVCAR-3(purchased from National Collection of Authenticated Cell Cultures) cell culture was maintained in vitro as independent monolayer cultures at 37° C. in an atmosphere of 5% CO₂. The cells were harvested using trypsin-EDTA partial digestion followed by centrifugation at 1000 rpm for 5 minutes. The cell was resuspended in cold PBS and serial dilution of Ch069707 and CL069707-H1L1, CL069707-H1L2, CL069707-H2L1 and CL069707-H2L2 antibodies were added. Ch069707 antibody was a chimeric antibody. The variable regions were the same as those of CL069707, and the constant region was the same as human IgG1 constant regions (SEQ ID NO: 70 and SEQ ID NO: 71). The cell solutions were mixed, incubated at 4° C. and washed with cold PBS prior to addition of secondary antibody conjugates (for detection purposes). After incubation at 4° C., the cells were washed with PBS, and then subjected to flow cytometry (FACS) analysis.

cyno monkey CDH6-ECD-His = molecular target: T2, cyno monkey CDH6-ECD-His (cyno monkey, UniProt A0A2K5TW62 54-615); experiment: BLI (Octet), antibody on AHC sensor, antigen 3.13-100 nM, 1:1 model
T2 construct: extracellular domain; Bought protein; also called Cyno CDH6-ECD-His; not shown: His tag
T2 sequence: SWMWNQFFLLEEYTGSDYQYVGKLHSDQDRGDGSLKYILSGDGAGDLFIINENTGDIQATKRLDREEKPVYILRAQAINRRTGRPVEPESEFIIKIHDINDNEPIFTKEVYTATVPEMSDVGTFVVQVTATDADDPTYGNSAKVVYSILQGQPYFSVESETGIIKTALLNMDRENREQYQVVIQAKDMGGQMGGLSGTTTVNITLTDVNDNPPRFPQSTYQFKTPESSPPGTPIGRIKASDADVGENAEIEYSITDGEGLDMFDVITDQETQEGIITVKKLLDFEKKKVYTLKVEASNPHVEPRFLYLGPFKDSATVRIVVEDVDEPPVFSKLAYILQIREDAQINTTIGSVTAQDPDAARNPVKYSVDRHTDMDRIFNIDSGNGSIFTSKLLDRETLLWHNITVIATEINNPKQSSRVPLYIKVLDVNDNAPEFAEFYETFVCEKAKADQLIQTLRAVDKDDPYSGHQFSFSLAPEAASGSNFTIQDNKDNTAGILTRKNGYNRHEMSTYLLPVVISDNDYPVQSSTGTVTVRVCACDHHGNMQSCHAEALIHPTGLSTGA
Protocol: Binding affinities of CL069707-H1L1 and Ch069707 were measured using the Octet® system based on Bio-Layer Interferometry (BLI) technique. Antibodies were loaded to AHC (Anti-hIgG Fc Capture) at 100 nM concentration. […] From the six different binding curves obtained from each antigen concentration, binding constants (KD) were calculated based on the 1:1 binding model. CL069707-H1L1 and Ch069707 binds to human CDH6-ECD-His antigen with similar affinity. CL069707-H1L1 binds to human CDH6-ECD-His and cyno monkey CDH6-ECD-His antigens with similar affinity.

B1: CL069707-H1L1 (antibody, human IgG1, kappa, V domains shown)
VH: EVQLVESGGGLVQPGGSLRLSCAASGFTFTTYAMNWVRQAPGKGLEWVARIRIKNNNYATYYADSVTDRFTISRDDSKNSLYLQMNSLKTEDTAVYYCVRPDYGNYGLAYWGQGTLVTVSS
VL: DIQLTQSPSSLSASVGDRVTITCSASSSISSHYLHWYQQKPGKSPKLLIYRSFYLASGVPSRFSGSGSGTDFTLTISSLQPEDFATYYCQQDIVPLTFGQGTKLEIKR
notes: Humanized IgG1/kappa, produced in 293 cells; also called humanized CL069707-H1L1
- EC50 (read off the curve) [1]: ~1 nM
- Kd (cyno monkey CDH6-ECD-His): 2.69 nM
